{
  "source": "paper PMC4764579",
  "about": "“Structural insights into the mechanism of activation of the TRPV1 channel by a membrane-bound tarantula toxin” (eLife, 2016)",
  "key": {"[1]": {"assay": "Membrane partitioning of toxins into lipid vesicles measured using Trp fluorescence", "format": "physicochemical", "description": "Motivated by the amphipathic character evident in the structure of DkTx, together with the placement of the toxin at the protein-lipid interface when bound to TRPV1, we investigated the interaction of DkTx and each of its two lobes with lipid membranes. For these experiments, we took advantage of the presence of a single conserved and solvent accessible Trp residue in loop 2 of both K1 and K2 (Figure 1C,D; W11 and W53), and used Trp fluorescence to monitor the partitioning of the toxin from the aqueous solution into the membrane environment ([Gupta et al., 2015]; [Ladokhin et al., 2000]; [Milescu et al., 2007]). When aqueous solutions of DkTx were excited at a wavelength of 280 nm, emission spectra with maxima at 353 nm were obtained (Figure 5A, left), as expected for Trp residues residing in such an environment. […] To quantify the extent of partitioning as a function of lipid concentration, we measured the relative fluorescence intensity in a blue-shifted region of the spectra (e.g. 320 nm) as a function of lipid concentration, and fit a partition function to the data to obtain a mole-fraction partition coefficient (Kx) of (2.3 ± 0.7) × 10^6, indicating an energetically favorable interaction of DkTx with lipid membranes (Figure 5A, right). This strong interaction of DkTx with membranes would facilitate binding of the toxin to the channel by increasing the local concentration of the toxin near the channel and by a reduction in the dimensionality of diffusion within the membrane ([Axelrod and Wang, 1994]).\nFigure 5. Interaction of DkTx and toxin constructs with lipid membranes measured using Trp fluorescence. […] (A–E, right panel) Relative fluorescence intensity at 320 nm (F/F0) as a function of available lipid concentrations (60% of total lipid concentration). […] Interaction of K1-K2 chimeras with lipid membranes measured using Trp fluorescence. […] (A–D, right panel) Relative fluorescence intensity at 320 nm (F/F0) as a function of available lipid concentrations (60% of total lipid concentration). […]"}, "[2]": {"biological_target": "T1, rTRPV1 (Rattus norvegicus, UniProt O35433)", "T1 construct": "preserved in the full-length construct used for our functional studies; expressed in transfected cells; host or cells: HEK293", "T1 sequence (O35433 whole entry)": "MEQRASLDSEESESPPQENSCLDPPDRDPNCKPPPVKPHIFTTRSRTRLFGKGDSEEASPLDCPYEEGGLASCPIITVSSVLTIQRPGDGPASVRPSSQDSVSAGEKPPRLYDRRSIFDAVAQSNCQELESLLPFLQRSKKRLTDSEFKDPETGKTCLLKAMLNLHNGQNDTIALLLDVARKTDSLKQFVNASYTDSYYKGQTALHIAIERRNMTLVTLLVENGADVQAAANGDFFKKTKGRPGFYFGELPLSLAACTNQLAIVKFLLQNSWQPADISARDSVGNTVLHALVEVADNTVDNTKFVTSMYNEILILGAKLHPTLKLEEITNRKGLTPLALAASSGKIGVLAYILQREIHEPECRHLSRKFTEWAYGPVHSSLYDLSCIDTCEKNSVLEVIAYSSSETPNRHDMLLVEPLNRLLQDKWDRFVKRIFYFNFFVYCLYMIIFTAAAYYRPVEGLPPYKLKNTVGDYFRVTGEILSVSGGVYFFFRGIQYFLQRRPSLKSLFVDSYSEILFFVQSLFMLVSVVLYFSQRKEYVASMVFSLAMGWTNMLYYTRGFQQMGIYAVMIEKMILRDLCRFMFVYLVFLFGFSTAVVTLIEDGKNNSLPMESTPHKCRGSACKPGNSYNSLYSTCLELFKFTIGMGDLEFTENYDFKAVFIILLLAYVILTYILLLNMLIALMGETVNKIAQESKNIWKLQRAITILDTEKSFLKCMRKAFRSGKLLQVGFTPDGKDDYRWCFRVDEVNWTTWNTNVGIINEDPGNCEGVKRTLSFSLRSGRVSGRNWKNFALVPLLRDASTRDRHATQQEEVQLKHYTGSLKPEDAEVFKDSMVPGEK", "assay": "Whole-cell patch clamp recordings of TRPV1 activation by toxins in transiently transfected HEK293 cells", "format": "cell-based", "description": "Figure 3. Validation of the proposed structural model of the TRPV1-DkTx complex. Close-up of K1 (A) and K2 (B) in the top-ranking ROSETTA model of DkTx bound to TRPV1. Side chains of TRPV1 residues where mutation disrupts DkTx-induced channel activation (I599, F649, A657 and F659) ([Bohlen et al., 2010]) are highlighted in purple. (C) Representative time courses of TRPV1 activation at +120 mV by either DkTx (left panel), K1K1 (middle panel) or K2K2 (right panel) measured from a train of voltage-ramps in the whole-cell configuration with the TRPV1 expressed in HEK cells. […] Fractional dissociation 1 min after toxin removal was quantified across cells as the current amplitude 1 min after toxin removal divided by the steady-state current amplitude in the presence of the toxin. […] Activation of the full-length TRPV1 channel by the toxin at different concentrations was measured in oocytes at a holding voltage of −60 mV. […]\nFigure 7. […] Currents were measured every 3 s by applying voltage-ramps of 1 s duration from −120 to +140 mV starting at a holding potential of −90 mV. Currents were recorded under constant perfusion with control solution or with the test solutions containing either NMDG^+ instead of Na^+ as permeant ion (gray), or the K2 toxins together with 130 mM NaCl (black and blue), as indicated by the continuous horizontal lines. […]"}},
  "data": [
    {"molecule": "double-knot toxin (protein, produced recombinantly) DCAKEGEVCSWGKKCCDLDNFYCPMEFIPHCKKYKPYVPVTTNCAKEGEVCGWGSKCCHGLDCPLAFIPYCEKYR", "values": [
      {"measurement": "F/F0^max (relative fluorescence intensity at 320 nm when partitioning is saturated)", "setting": "[1]; Trp fluorescence, LUVs 1:1 POPC:POPG, 10 mM HEPES, 1 mM EDTA, pH 7.0, fit of partition function, ± SEM, n = 3 or 4, SEM", "value": "2.65 ± 0.08"},
      {"measurement": "mole-fraction partition coefficient (Kx)", "setting": "[1]; Trp fluorescence, excitation 280 nm, F/F0 at 320 nm, LUVs 1:1 POPC:POPG extruded through 100 nm, toxin 2 or 5 µM in 10 mM HEPES, 1 mM EDTA, pH 7.0, available lipid 60% of total, fit of partition function, ± SEM, n = 3 or 4, SEM", "value": "(2.3 ± 0.7) × 10^6"},
      {"measurement": "measured free energy of membrane partitioning (ΔG° = −RT lnKx)", "setting": "[1]; from measured Kx, LUVs 1:1 POPC:POPG", "value": -8.5, "unit": "kcal/mol"},
      {"measurement": "dissociation from TRPV1 after toxin removal (in words)", "setting": "[2]; HEK cells", "value": "slow dissociation"},
      {"measurement": "Fractional dissociation 1 min after toxin removal (current amplitude 1 min after toxin removal divided by steady-state current amplitude in presence of toxin)", "setting": "[2]; TRPV1 in HEK cells, +120 mV from voltage ramps, 1 µM toxin, mean ± sem, n = 8 (DkTx), 5 (K1K1), 6 (K2K2), SEM", "value": "0.8 ± 0.05"}
    ]}
  ]
}
